Reference: the nanobody polyreactivity screen of Harvey et al. (2022)

Assay: yeast display, Sf9 membrane polyspecificity reagent, FACS + sequencing; frameworks hold sequencing errors
In short: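 Nanobodies came from a synthetic yeast display library in Saccharomyces cerevisiae BJ5465, induced with galactose for 36–48 hours and stained for 1 hour at 4 °C with 10% biotinylated, detergent-solubilized Sf9 membrane reagent. Cells were enriched on streptavidin microbeads and then FACS-sorted, with low and high (top ~1%) gates set on anti-HA fluorescence for expression and streptavidin fluorescence for reagent binding. Each polyreactivity label reflects the gate a clone came from. Genes were amplified by colony PCR, sequenced by MiSeq 2 × 250 and filtered by CDR length.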

Row | Sequence | polyreactivity (PSR sort gate)
1 | QFQLVESGGGLFQAGARLRLSSAASGNIFNWYALGLYRQAPGKEREFVACISTSGGSTYYADSVKGRFTISRDNAKNSVYLQMNSLKPEDTAVYYCNAKFFVYECLPGPSYWYDYWGQGTQVTVSS | high polyreactivity
2 | QVQLVESGGGLVQAGGSLLLSCAASGRIFRVYAMGWYRQAPGKERELVASITTSGSTYYADSVKGRFTISRDNAKNTVYLQMNSLKPEDTAVYYCAVDNYYTPWYPYLGYDSWGQGTQVTVSS | low polyreactivity
3 | QVQLVESGGGLVQAGGSLRLSCAASGIIFPGYAMGLYRQAPGKERELVAAISRSGASTYYADSVKGRFTISRDNAKNTVYLQMNSLKPEDTEVYYCAAEWYLGGEYRRYDYWGQGTQVTVSS | high polyreactivity
4 | QVQLVESGGGLVQAGGSLRLSCAASGLTIYHYAMGWYRQAPGKERELVAAISWNGGSTYYADSVKGRFTFSRDNAKNTVYLQMNSLKPEDTAVYYCAVVFNPHRYTGVLAGYDYWGQGTQVTVSS | high polyreactivity
5 | QVQLVESGGGLVQAGGSLRLSCAASGSTFTINAMGWYRQAPGKERELVAAISRSGVRTFYADSVKGRFTNSRDNAKNTVYLQRNSLKPEDTAVYYCAKQTYRVTTDEGDYWGQGTQVTVSS | high polyreactivity
6 | QVQLVESGGGLVQAGGSLSLSCAASGSISDVYPMGGYRQAPRKERELVAAITSGASTYYADSVKGRFTISRDNAKNTVYLQLNSLKTEDTAVYYCAAGYSDWYYADYNSWGQGTQVTVSS | low polyreactivity
7 | QVQLVESGGGLVQAGGSLRLSCAASGRTFRWYAMGRYRQAPGKERELVAVISRGGGSTTYADSVKGRFTISRDNAKNTVYLQMNSLKPEDTAVYYCAAQWSGSVGSRPMYYWGQGSQVTVSS | high polyreactivity
8 | QVQLVESGGGLVQAGGSLRLSCAASGSTFDWYAMGWYRQATGKETELVAAISWSDTSTYYADSVKGRFTISRDNAKNTVYLKMNSLKPEDTAVYYCNDEALYYYDSYDYWGQGTQVTVSS | high polyreactivity
9 | QVQLVESGGGLVQAGGSLRLSCAASGSTFYAYAMGWYRPAPGKERELVAAISSDGTNYADSVKGRFTISRDNAKNTVYLQMNSLKPEDTAVYYCAADLLLYSSQDNDYWGQGTQVTVSS | low polyreactivity
10 | QVHLVESGGGLVQAGRSLRLSCAASGSTFSYNAMGWSRQAPGKERELVAAISNGGSTNYADSVKGRFTISRDNAKYTVFLQMNSLKPEDTAVYYCAAHTYSELSWLVVYPYDYWGQGTQVTVSS | low polyreactivity
11 | QVQLVESGGGLVQAGGSLRLSCAASGSTFAYNDMGWYRQAPGKETELVADIRSGGNTNYADSVKGRFTISRDNAKNTVYLQMNSLKPEDTAVYYCATDGYRFDVYHPDYRYDYWGQGTQVTVSS | low polyreactivity
12 | QVQLVESGGGLVQAGGSLSLSCAASGSTFAYYAMGWYREAPGQERELVAGITWTGGSTYYADSVKGRFTISRDNAKNSVYLQMNSLKPEDTAVYYCAADRYFYEGDYWGQVTQVTVSS | low polyreactivity
13 | QVQLVESGGGIVQAGGSLRLSCAASGSIFGGNALGWDRQAPGKERELVAAITWSGTSTYYADSVKGRFTISRDNAKNTVYLQMNSLKPEDTAVYYCNADYKSTDFRYSGSRNYWGQGTQVTVSS | low polyreactivity
14 | QVQLVESGGGLVQAGGSLRLSCAASGRTFSPYAMGWYRQAPGKERELVAAITSRGASTYYADSVKGRFTISRDNAKNTVYLQMNSLKPEDTAVYYCNSGRTYRRLGDYWGQGTQVTVSS | high polyreactivity
15 | QVQLVESGGGLVQAGGSLRLSCAASVFTFQYYAMGWYRQAPGKERELVAAISRRGGRTDYADSVKGRFTISRDNAKNTVYLQMNSLKPEDTAVYYCARDPGAFEYWGQGTQVTLSS | high polyreactivity
16 | QVQLVESGGGLVQAGGSLRLTCAASGSIYVGNAMGWNRHAPGKEREFVAAISRSGGRTYYADSVKGRFTISRDNEKNTVYLQMNSLKPEDTAVYYCNAYGWEQRQMDSWGQGTQVTVSS | high polyreactivity

Row | Sequence | polyreactivity (PSR sort gate)
17 | QVQLVESGGGLVQAGRSLRLNCAASGSIFYYYAMGWYRPAPGKERELVAAISRNGGSTSYADSVKGRFTISRDNAKNTVYLQMNSLKPEDTAVYYCNTYGGYKYDYWGQGTQVTVSS | low polyreactivity
18 | QVQLVESVGGLVQAGGSLRLSCAASGRIFFYYGRGWYRQAPGKERELVAAITKRSSSTYYADSVKGRFTISRDNAKNTVYLQMNSLKPEDTAVYYCNAYPYRYVRRMDYWGQGTQVTVSS | high polyreactivity
19 | QVQLVESGGGLVQAGGSLRLSCAASGSIFYYNAMGWYRQAPGKERELVAAITSSGGSTYADSVKGRFSISRDNAKNTVYLQMKSLKPEDTAVYYCNADGGYSYESTDHYGYEYWGQGTQVTVSS | low polyreactivity
20 | QVQLVESGGGLVQAGGSLRLSCAGYGLTFEYYTMGWYRQAPGKGRELVAAITSSGGSTYYADSVKGRFTISRDNSKNTFYLQMISLKPEDTAVYYCNAYLTYEFPSYDYWGQGTQVTVSS | low polyreactivity
21 | QVQLVESGGGLVHAGGSLRLSCAASGSTFVRNAMGWYRPAPGKERQLVAAITSRGGSTYYADSVKGRFTISRDNAKNTVYLQMISLKPEDTAVYYCAARFGVKRGQYDYWGQGTQVTVSS | high polyreactivity
22 | QVQLVESGGGLVQAGGSLRLSCAASGRIIVPYVMGWYRLAPGKERELVAAISTSGTSTYYADSVKGRFTISRDNAKNTVYLQMNSLKPEDTAVYYCAKRSGARHRLMDYWGQGTQVTVSS | low polyreactivity
23 | QDQLVESGGGLVQAGGSLRLSCAASGSIFPGYAMGWYRKAPGKEREFVATITWSGGSTYYADSVKGRFTISRDNAKNTVYLQMNSLKPEDTAVYYCNADSNWYYQWNYYGLYDYWGQGTQVTVSS | low polyreactivity
24 | QVQLVESGGGLGQAGGSLRLSCAASGITFRSYAMGWYRQAPGKERELVATISWSGGITYYADSVKGRFTISRDNAKNTVYLQMNSLKPEDTAVYYCAKASQSWGPDDYYYWGQGTQVTVSS | low polyreactivity
25 | QVQLVESGGGLVQAGGSLRLSCAASGRILRFYAMGWYRQAPGKERELVATISRSGGSTYYADSVKGRFTISRDNAKNTVYLQMNSLKPEDTAVYYSNAKFKGVSYKMDYWGQGTQVTVSS | high polyreactivity
26 | QVQLVESGGGLVQAGGSLRLSCAASGSTFGFYAMGWYRQAPGKERELVAAISSSGSTYYADSVKGRFTISRDNAKNTVYLQMISLKPEDTAVYYCAAQPGYYDYDYWGQGTQVTVSS | low polyreactivity
27 | QVQLVESGGGLVQAGGSLRLSCAASGSTFYKYAMGWYRQAPGKERELVAAISTRGGSTYYADSVKWRFTISRDNAKNTVYLQMNSLKPEDTAVFYCAADGRGGHDVYWGQGSQVTVSS | high polyreactivity
28 | QVQLVESGGGLVQAGGSLRLSCAASGFTFTYNDMGWYIQAPGKEREFVAAISSTGGSTYYADSVKGRFTISRDNAKNTVYLQMNSLKAEDTAVYYCAAEDSWYWDAWFDYWGQGTQVTVSS | low polyreactivity
29 | QVQLVESGGGLVQAGGSLRVSCAASGRTFRYYAMGWYRQAPGKERELVASISDGGSTNYADSVKGRFTISRDNAKNTVYLQMNSQKPEDTAVYYCNAKAYVWYLYDEFGYWGQGTQVTVSS | low polyreactivity
30 | QVQLVESGGGLVQAGGSLRLSCAASGSTFWGYAMGWSRQAPGKERELVASITTSDSTYYADSVKGRFTISRDNAKNTVYLQMNSLKPEDSAVYYCAADETWPEYDYWGQGSQVTVSS | low polyreactivity
31 | QVQLVESGGALVQAGGSLRLSCAASGSTFAYYAMGWSRPAPGKERELVAAITRGGRTNYADSVKGRFTISRDNAKNTVYVQMNSLNREDTAVYYCAARSGRSWLTCSYDYWGQGTQVTVSS | high polyreactivity
32 | QVQLVESGGGLGQAGGSLRLSCAASGFTFDFYAMGWYRQAPGKERELVAAISKNDGTTYYADSVKGRFTISRDNAKNTVYLQMNSLKPEDTAVYYCAAESGYPVYTYVSSGDYWGQGTQVTVSS | low polyreactivity
